± gives the uncertainty stated by the source.
B1: Protein S100-G, residues 1 to 79; numbered along this chain, P02633 (parent)
chain: MSAKKSPEELKGIFEKYAAKEGDPNQLSKEELKLLLQTEFPSLLKGPSTLDELFEELDKNGDGEVSFEEFQVLVKKISQ

Variants of: B1
Assay: abundance fitness (aPCA) (normalised: wild type 0, dead -1); higher = more abundant; growth selection in yeast, the domain comes from the species named
Settings: Bos taurus

Q: With MSAKKSPEELKGIFEKYAAKEGDPNQLSKEELKLLLQTEFPSLLKGPSTLDELFEELDKWGDGEVSFEEFQVLVKKISQ as the variant, how does the abundance fitness read?
A: The abundance fitness was -0.091 ± 0.092.

Q: Which abundance fitness does the source give for MSAKKSPEELKGIFEKYAAKEGDPNQLSKEELKLLLQTEFPSLLKGPSTLDELFEELDKTGDGEVSFEEFQVLVKKISQ here?
A: The abundance fitness was -0.042 ± 0.078.

Q: Which abundance fitness does the source give for MSAKKSPEELKGIFEKYAAKEGDPNQLSKEELKLLLQTEFPSLLKGPSTLDELFEELDKIGDGEVSFEEFQVLVKKISQ here?
A: Its abundance fitness is 0 ± 0.092.

Q: Which abundance fitness does the source give for MSAKKSPEELKGIFEKYAAKEGDPNQLSKEELKLLLQTEFPSLLKGPSTLDELFEELDKHGDGEVSFEEFQVLVKKISQ here?
A: The abundance fitness was -0.05 ± 0.088.

Q: Which abundance fitness does the source give for MSAKKSPEELKGIFEKYAAKEGDPNQLSKEELKLLLQTEFPSLLKGPSTLDELFEELDKAGDGEVSFEEFQVLVKKISQ here?
A: Its abundance fitness is 0.101 ± 0.076.

Q: For MSAKKSPEELKGIFEKYAAKEGDPNQLSKEELKLLLQTEFPSLLKGPSTLDELFEELDKRGDGEVSFEEFQVLVKKISQ, which abundance fitness is on record?
A: Its abundance fitness is 0.014 ± 0.071.

Q: For MSAKKSPEELKGIFEKYAAKEGDPNQLSKEELKLLLQTEFPSLLKGPSTLDELFEELDKMGDGEVSFEEFQVLVKKISQ, which abundance fitness is on record?
A: The abundance fitness was -0.164 ± 0.087.

Q: Which abundance fitness does the source give for MSAKKSPEELKGIFEKYAAKEGDPNQLSKEELKLLLQTEFPSLLKGPSTLDELFEELDKFGDGEVSFEEFQVLVKKISQ here?
A: Its abundance fitness is -0.156 ± 0.092.

Q: With MSAKKSPEELKGIFEKYAAKEGDPNQLSKEELKLLLQTEFPSLLKGPSTLDELFEELDKKGDGEVSFEEFQVLVKKISQ as the variant, how does the abundance fitness read?
A: Its abundance fitness is -0.105 ± 0.084.

Q: Which abundance fitness does the source give for MSAKKSPEELKGIFEKYAAKEGDPNQLSKEELKLLLQTEFPSLLKGPSTLDELFEELDKQGDGEVSFEEFQVLVKKISQ here?
A: Its abundance fitness is -0.043 ± 0.087.

Q: Which abundance fitness does the source give for MSAKKSPEELKGIFEKYAAKEGDPNQLSKEELKLLLQTEFPSLLKGPSTLDELFEELDKGGDGEVSFEEFQVLVKKISQ here?
A: The abundance fitness was 0.027 ± 0.082.

Q: Which abundance fitness does the source give for MSAKKSPEELKGIFEKYAAKEGDPNQLSKEELKLLLQTEFPSLLKGPSTLDELFEELDKPGDGEVSFEEFQVLVKKISQ here?
A: Its abundance fitness is 0.004 ± 0.08.

Q: With MSAKKSPEELKGIFEKYAAKEGDPNQLSKEELKLLLQTEFPSLLKGPSTLDELFEELDKCGDGEVSFEEFQVLVKKISQ as the variant, how does the abundance fitness read?
A: The abundance fitness was -0.102 ± 0.087.

Q: For MSAKKSPEELKGIFEKYAAKEGDPNQLSKEELKLLLQTEFPSLLKGPSTLDELFEELDKDGDGEVSFEEFQVLVKKISQ, which abundance fitness is on record?
A: The abundance fitness was 0.058 ± 0.093.

Q: With MSAKKSPEELKGIFEKYAAKEGDPNQLSKEELKLLLQTEFPSLLKGPSTLDELFEELDKEGDGEVSFEEFQVLVKKISQ as the variant, how does the abundance fitness read?
A: The abundance fitness was 0.108 ± 0.1.

Q: With MSAKKSPEELKGIFEKYAAKEGDPNQLSKEELKLLLQTEFPSLLKGPSTLDELFEELDKSGDGEVSFEEFQVLVKKISQ as the variant, how does the abundance fitness read?
A: Its abundance fitness is 0.04 ± 0.068.

Q: For MSAKKSPEELKGIFEKYAAKEGDPNQLSKEELKLLLQTEFPSLLKGPSTLDELFEELDKLGDGEVSFEEFQVLVKKISQ, which abundance fitness is on record?
A: Its abundance fitness is -0.034 ± 0.07.

Q: For MSAKKSPEELKGIFEKYAAKEGDPNQLSKEELKLLLQTEFPSLLKGPSTLDELFEELDKNGRGEVSFEEFQVLVKKISQ, which abundance fitness is on record?
A: Its abundance fitness is -0.003 ± 0.065.

Q: With MSAKKSPEELKGIFEKYAAKEGDPNQLSKEELKLLLQTEFPSLLKGPSTLDELFEELDKNGAGEVSFEEFQVLVKKISQ as the variant, how does the abundance fitness read?
A: The abundance fitness was -0.009 ± 0.069.

Q: Which abundance fitness does the source give for MSAKKSPEELKGIFEKYAAKEGDPNQLSKEELKLLLQTEFPSLLKGPSTLDELFEELDKNGGGEVSFEEFQVLVKKISQ here?
A: Its abundance fitness is -0.032 ± 0.077.

Q: Which abundance fitness does the source give for MSAKKSPEELKGIFEKYAAKEGDPNQLSKEELKLLLQTEFPSLLKGPSTLDELFEELDKNGWGEVSFEEFQVLVKKISQ here?
A: The abundance fitness was -0.168 ± 0.088.

Q: Which abundance fitness does the source give for MSAKKSPEELKGIFEKYAAKEGDPNQLSKEELKLLLQTEFPSLLKGPSTLDELFEELDKNGTGEVSFEEFQVLVKKISQ here?
A: Its abundance fitness is -0.044 ± 0.067.

Q: Which abundance fitness does the source give for MSAKKSPEELKGIFEKYAAKEGDPNQLSKEELKLLLQTEFPSLLKGPSTLDELFEELDKNGYGEVSFEEFQVLVKKISQ here?
A: Its abundance fitness is -0.193 ± 0.078.

Q: For MSAKKSPEELKGIFEKYAAKEGDPNQLSKEELKLLLQTEFPSLLKGPSTLDELFEELDKNGEGEVSFEEFQVLVKKISQ, which abundance fitness is on record?
A: The abundance fitness was 0.058 ± 0.078.

Q: With MSAKKSPEELKGIFEKYAAKEGDPNQLSKEELKLLLQTEFPSLLKGPSTLDELFEELDKNGPGEVSFEEFQVLVKKISQ as the variant, how does the abundance fitness read?
A: The abundance fitness was -0.027 ± 0.074.

Q: With MSAKKSPEELKGIFEKYAAKEGDPNQLSKEELKLLLQTEFPSLLKGPSTLDELFEELDKNGHGEVSFEEFQVLVKKISQ as the variant, how does the abundance fitness read?
A: The abundance fitness was -0.045 ± 0.069.

Q: For MSAKKSPEELKGIFEKYAAKEGDPNQLSKEELKLLLQTEFPSLLKGPSTLDELFEELDKNGFGEVSFEEFQVLVKKISQ, which abundance fitness is on record?
A: Its abundance fitness is -0.138 ± 0.076.

Q: For MSAKKSPEELKGIFEKYAAKEGDPNQLSKEELKLLLQTEFPSLLKGPSTLDELFEELDKNGSGEVSFEEFQVLVKKISQ, which abundance fitness is on record?
A: Its abundance fitness is 0.043 ± 0.062.

Q: Which abundance fitness does the source give for MSAKKSPEELKGIFEKYAAKEGDPNQLSKEELKLLLQTEFPSLLKGPSTLDELFEELDKNGKGEVSFEEFQVLVKKISQ here?
A: The abundance fitness was 0.004 ± 0.078.

Q: For MSAKKSPEELKGIFEKYAAKEGDPNQLSKEELKLLLQTEFPSLLKGPSTLDELFEELDKNGIGEVSFEEFQVLVKKISQ, which abundance fitness is on record?
A: The abundance fitness was -0.097 ± 0.076.

Q: Which abundance fitness does the source give for MSAKKSPEELKGIFEKYAAKEGDPNQLSKEELKLLLQTEFPSLLKGPSTLDELFEELDKNGVGEVSFEEFQVLVKKISQ here?
A: The abundance fitness was -0.027 ± 0.065.

Q: With MSAKKSPEELKGIFEKYAAKEGDPNQLSKEELKLLLQTEFPSLLKGPSTLDELFEELDKNGLGEVSFEEFQVLVKKISQ as the variant, how does the abundance fitness read?
A: The abundance fitness was -0.042 ± 0.059.

Q: For MSAKKSPEELKGIFEKYAAKEGDPNQLSKEELKLLLQTEFPSLLKGPSTLDELFEELDKNNDGEVSFEEFQVLVKKISQ, which abundance fitness is on record?
A: Its abundance fitness is -0.072 ± 0.08.

Q: Which abundance fitness does the source give for MSAKKSPEELKGIFEKYAAKEGDPNQLSKEELKLLLQTEFPSLLKGPSTLDELFEELDKNWDGEVSFEEFQVLVKKISQ here?
A: Its abundance fitness is -0.024 ± 0.085.

Reference: the Human Domainome abundance scans (Beltran et al. 2025)
